The values below come from publication PMC12102759 (2025).

One assay has as its target PRDM14 wild-type peptide. Kind of assay: FP.
Another assay deals with NCOA2 wild-type peptide. Nature of the assay: FP.

B1: SARS‐CoV‐2 NSP3 SUD‐M domain (1356–1493), tag cleaved, for FP (domain or fragment)
chain: LPSIISNEKQEILGTVSWNLREMLAHAEETRKLMPVCVETKAIVSTIQRKYKGIKIQEGVVDYGARFYFYTSKTTVASLINTLNDLNETLVTMPLGYVTHGLNLEEAARYMRSLKVPATVSVSSPDAVTAYNGYLTSS
The molecule B1 had a Kd with PRDM14 wild-type peptide of 74 µM.

B2: SARS‐CoV‐2 NSP3 UBl1 domain (819–925), tag cleaved, for FP (domain or fragment)
chain: APTKVTFGDDTVIEVQGYKSVNITFELDERIDKVLNEKCSAYTVELGTEVNEFACVVADAVIKTLQPVSELLTPLGIDLDEWSMATYYLFDESGEFKLASHMYCSFY
In turn, B2 registered a Kd with NCOA2 wild-type peptide of 39 µM.
